According to paper PMC2989778:
Blank lines part the entries; values can stand above or below the binder they belong to.

Biological target: hCD40–BAFF-R_(His159-Tyr) chimera (human | mouse) (UniProt P25942)
Assay: co-IP

fold increase in recruitment against hCD40–BAFF-RWT (60 min): 5 fold
B1: TRAF2 (mouse, endogenous) (natural protein)
chain: MAAASVTSPGSLELLQPGFSKTLLGTRLEAKYLCSACKNILRRPFQAQCGHRYCSFCLTSILSSGPQNCAACVYEGLYEEGISILESSSAFPDNAARREVESLPAVCPNDGCTWKGTLKEYESCHEGLCPFLLTECPACKGLVRLSEKEHHTEQECPKRSLSCQHCRAPCSHVDLEVHYEVCPKFPLTCDGCGKKKIPRETFQDHVRACSKCRVLCRFHTVGCSEMVETENLQDHELQRLREHLALLLSSFLEAQASPGTLNQVGPELLQRCQILEQKIATFENIVCVLNREVERVAVTAEACSRQHRLDQDKIEALSNKVQQLERSIGLKDLAMADLEQKVSELEVSTYDGVFIWKISDFTRKRQEAVAGRTPAIFSPAFYTSRYGYKMCLRVYLNGDGTGRGTHLSLFFVVMKGPNDALLQWPFNQKVTLMLLDHNNREHVIDAFRPDVTSSSFQRPVSDMNIASGCPLFCPVSKMEAKNSYVRDDAIFIKAIVDLTGL

fold increase in recruitment against hCD40–BAFF-RWT (60 min): 4 fold
B2: TRAF3 (mouse, endogenous) (natural protein)
chain: MESSKKMDAAGTLQPNPPLKLQPDRGAGSVLVPEQGGYKEKFVKTVEDKYKCEKCRLVLCNPKQTECGHRFCESCMAALLSSSSPKCTACQESIIKDKVFKDNCCKREILALQVYCRNEGRGCAEQLTLGHLLVHLKNECQFEELPCLRADCKEKVLRKDLRDHVEKACKYREATCSHCKSQVPMIKLQKHEDTDCPCVVVSCPHKCSVQTLLRSELSAHLSECVNAPSTCSFKRYGCVFQGTNQQIKAHEASSAVQHVNLLKEWSNSLEKKVSLLQNESVEKNKSIQSLHNQICSFEIEIERQKEMLRNNESKILHLQRVIDSQAEKLKELDKEIRPFRQNWEEADSMKSSVESLQNRVTELESVDKSAGQAARNTGLLESQLSRHDQMLSVHDIRLADMDLRFQVLETASYNGVLIWKIRDYKRRKQEAVMGKTLSLYSQPFYTGYFGYKMCARVYLNGDGMGKGTHLSLFFVIMRGEYDALLPWPFKQKVTLMLMDQGSSRRHLGDAFKPDPNSSSFKKPTGEMNIASGCPVFVAQTVLENGTYIKDDTIFIKVIVDTSDLPDP
